Columns and labels:
[1] = Western blot, KG1a-TWIST1 and SKM1; settings: glycan lost; control: untreated cells
[2] = IP / ubiquitin blot, KG1a-TWIST1 and SKM1; settings: glycan lost; control: non-treated cells
[3] = CHX chase, TWIST1 stability, KG1a-TWIST1 and SKM1; settings: glycan lost; control: untreated cells
Western blot, HEK-293T = settings: glycan lost; control: WT flag-TWIST1
[4] = IP / ubiquitin blot, HEK-293T; settings: glycan lost; control: WT flag-TWIST1
[5] = CHX chase, TWIST1 stability, HEK-293T; settings: glycan lost; control: WT flag-TWIST1

Row | Protein | expression_or_secretion [1] | other: ubiquitination [2] | degradation_or_half_life [3] | expression_or_secretion (Western blot, HEK-293T) | other: ubiquitination [4] | degradation_or_half_life [5]
1 | TWIST1: OSMI-1 (protein) parent chain: MMQDVSSSPVSPADDSLSNSEEEPDRQQPPSGKRGGRKRRSSRRSAGGGAGPGGAAGGGVGGGDEPGSPAQGKRGKKSAGCGGGGGAGGGGGSSSGGGSPQSYEELQTQRVMANVRERQRTQSLNEAFAALRKIIPTLPSDKLSKIQTLKLAARYIDFLYQVLQSDELDSKMASCSYVAHERLSYAFSVWRMEGAWSMSASH | decreases | increases | decreases |  |  | 
2 | TWIST1: S31A (protein) parent chain: MMQDVSSSPVSPADDSLSNSEEEPDRQQPPSGKRGGRKRRSSRRSAGGGAGPGGAAGGGVGGGDEPGSPAQGKRGKKSAGCGGGGGAGGGGGSSSGGGSPQSYEELQTQRVMANVRERQRTQSLNEAFAALRKIIPTLPSDKLSKIQTLKLAARYIDFLYQVLQSDELDSKMASCSYVAHERLSYAFSVWRMEGAWSMSASH |  |  |  | decreases | increases | decreases
